Experimental findings from patent US7951562B2, “Method for glycosylating hydroxylysine residues in polypeptides or peptides” (Oulun Yliopisto, priority 2000, dated 2011) are described below.

Some results are limits rather than exact numbers.

What all share (type): biochemical
Test [1] deals with galactosylhydroxylysyl residues in calf skin gelatin substrate. As to the kind of experiment: GGT (glucosyltransferase) activity of recombinant proteins expressed in Sf9 insect cells. The note with it: for GGT activity, Dpm/plate: Sf9 cells transfected by LH3 constructs; for GGT activity, %: relative to nonmutated LH3 construct; for GGT activity in cell lysates: Sf9 cells, 72 hours after infection. The text has this: The glucosyltransferase activity can be assayed as described in Myllylä et al. (1975). The method is based on the transfer of radioactively (tritium) labelled glucose from UDP-glucose to galactosylhydroxylysyl residues in calf skin gelatin substrate and on the specific assay of the product of the enzyme reaction after alkaline hydrolysis.
(§1) Commercially available baculovirus transfer vector pFastBacI in the BAC-TO-BAC™ expression system (Life technologies, Inc.) was modified to contain human LH1 signal peptide (Hautala et al., 1992) and His6 tag, and BamHI restriction site for insertion of the desired cDNA, nucleotides 289-2455 of LH3 cDNA (SEQ ID NO 6) (Valtavaara et al., 1998). The construct was confirmed by sequencing. The recombinant protein contains His tag at the amino-terminus after signal peptide cleavage. Insect cells were harvested 0-72 hours after infection and homogenized according to the protocol described earlier (Valtavaara et al., 1997).
Human LH1 signal peptide and His6 tag was inserted to the cDNA constructs of LH1 and LH2. The baculovirus transfer vector pFastBacI was modified so that human LH1 signal sequence followed by nine nucleotides of the amino-terminal end was ligated to the His6 tag followed by nucleotides for BamHI restriction site. The human cDNA sequence (LH1 or LH2) (SEQ ID NO 21, 23 and 25) starting from the likely amino-terminal end of the molecule was ligated to the BamHI site of the construct. Two expression constructs were generated for LH2, LH2a and LH2b (SEQ ID NO 23 and 25), both of them covered the nucleotides from 76 to 2267 (Valtavaara et al., 1997). The LH2b construct contained also the alternatively spliced exon sequence (Valtavaara 1999; Yeowell and Walker, 1999) between nucleotides 1500 and 1501 (SEQ ID NO 25). The constructs were confirmed by sequencing. Insect cells were grown and homogenized as described above.
(§2) LH activity was assayed by a method based on the hydroxylation-coupled decarboxylation of 2-oxo(1-^14C)glutarate (Kivirikko and Myllylä 1982), synthetic peptide […] was used as a substrate. GGT activity was assayed as described elsewhere (Myllylä et al. 1975). The method is based on the transfer of radioactively (tritium) labelled glucose from UDP-glucose to galactosylhydroxylysyl residues in calf skin gelatin substrate and on the specific assay of the product of the enzyme reaction after alkaline hydrolysis.

In test [2] the test system is synthetic peptide IKGIKGIKG
As to the kind of experiment: LH (lysyl hydroxylase) activity of LH3 constructs expressed in Sf9 cells. The note with it: for LH3 activity, Dpm/plate: Sf9 cells transfected by LH3 constructs; for LH3 activity, %: relative to nonmutated LH3 construct.
Excerpt: (§3) The lysyl hydroxylase activity can be assayed by a method based on the hydroxylation-coupled decarboxylation of 2-oxo(1-^14C)glutarate (Kivirikko and Myllylä 1982), synthetic peptide […] was used as a substrate.
as §1, §2

Test [3] deals with hydroxylysyl residues in a calf skin gelatin substrate. As to the kind of experiment: GT (galactosyltransferase) activity of recombinant proteins expressed in E. coli. The note with it: E. coli cell supernatant, FIG. 12.
Excerpt: The galactosyltransferase activity can be assayed as described in Myllylä et al. (1975). The method is based on the transfer of radioactively (tritium) labelled galactose from UDP-galactose to hydroxylysyl residues in calf skin gelatin substrate and on the specific assay of the product of the enzyme reaction after alkaline hydrolysis.
Test [4] relates to synthetic peptide IKGIKGIKG
The test is described as follows: LH activity of human LH isoforms expressed in E. coli. The conditions noted are these: E. coli expression system, data not shown.
Excerpt: as §3
PFastBacI constructs for human LH1, LH2a, LH2b and LH3 were cleaved with BamHI and Hind III restriction enzymes and coding regions were subcloned into same site in E. coli expression vector pQE30 containing (His)6 tag at the amino terminus. Insert for C. elegans LH (corresponding to amino acids 14-730 in cDNA) was generated by PCR and ligated into SacI-PstI site of pOE30 vector. Constructs were transformed into E. coli XL1-Blue strain. Cultures were grown to OD600 of 0.6 at 37° C. Protein expression was induced by adding 1 mM IPTG and incubation was proceed at 30° C. for 5 hours. Cells were harvested and stored at −20° C. For activity measurements cell pellet was suspended to lysis buffer (0.4 M NaCl, 0.5% Nonident and 20 mM Tris-HCl pH 7.8, at 20° C.) and incubated in the presence of lysozyme (50 μg/ml), DNAase (10 μg/ml) and RNAase (10 μg g/ml) at room temperature for 30 minutes. Lysis was completed by sonication. Cell debris was pelleted and supernatant was used in the measurements.

For test [5], the system named is hydroxylysyl residues in a calf skin gelatin substrate. The test is described as follows: GT activity of recombinant proteins expressed with baculovirus vector in Sf9 cells. The note with it: baculovirus vector in insect cells, not shown. How it is done: Baculovirus transfer vector pFastBacI in the BAC-TO-BAC™ expression system was used to produce LH3 protein in Sf9 cells. The cDNA construct is in Example 1. The recombinant protein contains the His tag at the amino terminus after signal peptide cleavage. The cells were homogenized as described elsewhere (Valtavaara et al. 1997).
GT and GGT activities were measured by a method based on the transfer of radioactively (tritium)-labeled sugar from UDP-sugar to hydroxylysyl or galactosylhydroxylysyl residues in a calf skin gelatin substrate, respectively (Myllylä et al. 1975). The specific detection of the reaction products was performed after alkaline hydrolysis.

B1: Mutation 4: human LH3 mutant, amino acids 25-668 normal, amino acids 669-698 modified (protein, listed as Homo sapiens)
chain: SDRPRGRDPVNPEKLLVITVATAETEGYLRFLRSAEFFNYTVRTLGLGEEWRGGDVARTVGGGQKVRWLKKEMEKYADREDMIIMFVDSYDVILAGSPTELLKKFVQSGSRLLFSAESFCWPEWGLAEQYPEVGTGKRFLNSGGFIGFATTIHQIVRQWKYKDDDDDQLFYTRLYLDPGLREKLSLNLDHKSRIFQNLNGALDEVVLKFDRNRVRIRNVAYDTLPIVVHGNGPTKLQLNYLGNYVPNGWTPEGGCGFCNQDRRTLPGGQPPPRVFLAVFVEQPTPFLPRFLQRLLLLDYPPDRVTLFLHNNEVFHEPHIADSWPQLQDHFSAVKLVGPEEALSPGEARDMAMDLCRQDPECEFYFSLDADAVLTNLQTLRILIEENRKVIAPMLSRHGKLWSNFWGALSPDEYYARSEDYVELVQRKRVGVWNVPYISQAYVIRGDTLRMELPQRDVFSGSDTDPDMAFCKSFRDKGIFLHLSNQHEFGRLLATSRYDTEHLHPDLWQIFDNPVDWKEQYIHENYSRALEGEGIVEQPCPDVYWFPLLSEQMCDELVAEMEHYGQWSGGRHEDSRLAGGYENVPTVDIHMKQVGYEDQWLQLLRTYVGPMTESLFPGYHTKARAVMNFVVRYRPDEQPSLRPHHAHPPSPSTLPSTTRAWTMREVAAASCATTV
Take B1: in test [1], the “GGT activity, Dpm/plate” value is recorded as 360000 Dpm/plate and the “GGT activity, %” value was found to be 47%. Also, in test [2], the “LH3 activity, Dpm/plate” value is <300 Dpm/plate and the “LH3 activity, %” value is listed as <5%.

B2: LH1: recombinant human lysyl hydroxylase isoform 1, His-tagged (protein, listed as Homo sapiens)
chain: MRPLLLLALLGWLLLAEAKGDAKPEDNLLVLTVATKETEGFRRFKRSAQFFNYKIQALGLGEDWNVEKGTSAGGGQKVRLLKKALEKHADKEDLVILFTDSYDVLFASGPRELLKKFRQARSQVVFSAEELIYPDRRLETKYPVVSDGKRFLGSGGFIGYAPNLSKLVAEWEGQDSDSDQLFYTKIFLDPEKREQINITLDHRCRIFQNLDGALDEVVLKFEMGHVRARNLAYDTLPVLIHGNGPTKLQLNYLGNYIPRFWTFETGCTVCDEGLRSLKGIGDEALPTVLVGVFIEQPTPFVSLFFQRLLRLHYPQKHMRLFIHNHEQHHKAQVEEFLAQHGSEYQSVKLVGPEVRMANADARNMGADLCRQDRSCTYYFSVDADVALTEPNSLRLLIQQNKNVIAPLMTRHGRLWSNFWGALSADGYYARSEDYVDIVQGRRVGVWNVPYISNIYLIKGSALRGELQSSDLFHHSKLDPDMAFCANIRQQDVFMFLTNRHTLGHLLSLDSYRTTHLHNDLWEVFSNPEDWKEKYIHQNYTKALAGKLVETPCPDVYWFPIFTEVACDELVEEMEHFGQWSLGNNKDNRIQGGYENVPTIDIHMNQIGFEREWHKFLLEYIAPMTEKLYPGYYTRAQFDLAFVVRYKPDEQPSLMPHHDASTFTINIALNRVGVDYEGGGCRFLRYNCSIRAPRKGWTLMHPGRLTHYHEGLPTTRGTRYIAVSFVDP
modifications: His6 tag
notes: recombinant human lysyl hydroxylase isoform 1, His-tagged
On to B2, for which the results for the “generation of GT activity” value in test [3] and in test [5] were “LH3 was the only one being able to generate GT activity” and “did not generated GT activity”, respectively. For the same molecule, the “GGT activity in cell lysates” value in test [1] was “none of these recombinant proteins had detectable GGT activity”. In addition, in test [4], the “LH activity” value is listed as “no LH activity can be found”.

B3: Mutation 1: human LH3 mutant, amino acids 25-231 normal, amino acids 232-356 modified (frame shift) (protein, listed as Homo sapiens)
chain: SDRPRGRDPVNPEKLLVITVATAETEGYLRFLRSAEFFNYTVRTLGLGEEWRGGDVARTVGGGQKVRWLKKEMEKYADREDMIIMFVDSYDVILAGSPTELLKKFVQSGSRLLFSAESFCWPEWGLAEQYPEVGTGKRFLNSGGFIGFATTIHQIVRQWKYKDDDDDQLFYTRLYLDPGLREKLSLNLDHKSRIFQNLNGALDEVVLSLIGTVCVSGTWPTTRSPLWSMETVPLSCSSTTWETTSPMAGLLREAVASATRTGGHSRGGSLPPGCFWPCLWNSLLRFCPASCSGCYSWTIPPTGSPFSCTTTRSSMNPTSLTPGRSSRTTSQL
Take B3: in test [1], the “GGT activity, Dpm/plate” value was 650 Dpm/plate and the “GGT activity, %” value is 0.1%. In addition, in test [2], the “LH3 activity, Dpm/plate” value is on record as <300 Dpm/plate and the “LH3 activity, %” value was <5%.

B4: LH2a: recombinant human lysyl hydroxylase isoform 2, alternatively spliced form a (protein)
chain: ADSEKPSSIPTDKLLVITVATKESDGFHRFMQSAKYFNYTVKVLGQGEEWRGGDGINSIGGGQKVRLMKEVMEHYADQDDLVVMFTECFDVIFAGGPEEVLKKFQKANHKVVFAADGILWPDKRLADKYPVVHIGKRYLNSGGFIGYAPYVNRIVQQWNLQDNDDDQLFYTKVYIDPLKREAINITLDHKCKIFQTLNGAVDEVVLKFENGKARAKNTFYETLPVAINGNGPTKILLNYFGNYVPNSWTQDNGCTLCEFDTVDLSAVDVHPNVSIGVFIEQPTPFLPRFLDILLTLDYPKEALKLFIHNKEVYHEKDIKVFFDKAKHEIKTIKIVGPEENLSQAEARNMGMDFCRQDEKCDYYFSVDADVVLTNPRTLKILIEQNRKIIAPLVTRHGKLWSNFWGALSPDGYYARSEDYVDIVQGNRVGVWNVPYMANVYLIKGKTLRSEMNERNYFVRDKLDPDMALCRNAREMGVFMYISNRHEFGRLLSTANYNTSHYNNDLWQIFENPVDWKEKYINRDYSKIFTENIVEQPCPDVFWFPIFSEKACDELVEEMEHYGKWSGGKHHDSRISGGYENVPTDDIHMKQVDLENVWLDFIREFIAPVTLKVFAGYYTKGFALLNFVVKYSPERQRSLRPHHDASTFTINIALNNVGEDFQGGGCKFLRYNCSIESPRKGWSFMHPGRLTHLHEGLPVKNGTRYIAVSFIDP
modifications: left off: small tags and cut ends
notes: recombinant human lysyl hydroxylase isoform 2, alternatively spliced form a
In the case of B4, the “generation of GT activity” value is recorded as “LH3 was the only one being able to generate GT activity” in test [3] and “did not generated GT activity” in test [5]. For the same molecule, the “GGT activity in cell lysates” value in test [1] is reported as “none of these recombinant proteins had detectable GGT activity”. For the same molecule, the “LH activity” value in test [4] is given as “no LH activity can be found”.

B5: Mutation 2: human LH3 mutant, amino acids 25-520 normal, amino acids 521-738 missing (protein, listed as Homo sapiens)
chain: SDRPRGRDPVNPEKLLVITVATAETEGYLRFLRSAEFFNYTVRTLGLGEEWRGGDVARTVGGGQKVRWLKKEMEKYADREDMIIMFVDSYDVILAGSPTELLKKFVQSGSRLLFSAESFCWPEWGLAEQYPEVGTGKRFLNSGGFIGFATTIHQIVRQWKYKDDDDDQLFYTRLYLDPGLREKLSLNLDHKSRIFQNLNGALDEVVLKFDRNRVRIRNVAYDTLPIVVHGNGPTKLQLNYLGNYVPNGWTPEGGCGFCNQDRRTLPGGQPPPRVFLAVFVEQPTPFLPRFLQRLLLLDYPPDRVTLFLHNNEVFHEPHIADSWPQLQDHFSAVKLVGPEEALSPGEARDMAMDLCRQDPECEFYFSLDADAVLTNLQTLRILIEENRKVIAPMLSRHGKLWSNFWGALSPDEYYARSEDYVELVQRKRVGVWNVPYISQAYVIRGDTLRMELPQRDVFSGSDTDPDMAFCKSFRDKGIFLHLSNQHEFGRLLATSR
Consider B5, for which, in test [1], the “GGT activity, Dpm/plate” value was found to be 180000 Dpm/plate and the “GGT activity, %” value is 23%. Moreover, in test [2], the “LH3 activity, Dpm/plate” value is reported as <300 Dpm/plate and the “LH3 activity, %” value is <5%.
